The chains are these.
B1: POU domain, class 3, transcription factor 1, residues 247 to 324; numbered along this chain, Q03052 (parent)
chain: EDAPSSDDLEQFAKQFKQRRIKLGFTQADVGLALGTLYGNVFSQTTICRFEALQLSFKNMCKLKPLLNKWLEETDSSS

The values that follow come from the Human Domainome abundance scans (Beltran et al. 2025).

± gives the uncertainty stated by the source.

Variants of B1 are the subject of the series. Briefly: abundance fitness (aPCA) (normalised: wild type 0, dead -1); higher = more abundant; growth selection in yeast, the domain comes from the species named. The note with it: Homo sapiens.
Consider EDAPSSDDLEQFAKQFKQRRIKLGFTQADVGLALGTLYGNVFSQTTICRFEALQLSFKNMCKLKPLLNKWWEETDSSS, for which the abundance fitness was -0.584 ± 0.098.
As for EDAPSSDDLEQFAKQFKQRRIKLGFTQADVGLALGTLYGNVFSQTTICRFEALQLSFKNMCKLKPLLNKWCEETDSSS, the abundance fitness is -0.712 ± 0.13.
To EDAPSSDDLEQFAKQFKQRRIKLGFTQADVGLALGTLYGNVFSQTTICRFEALQLSFKNMCKLKPLLNKWPEETDSSS belongs -1.1 ± 0.27; to EDAPSSDDLEQFAKQFKQRRIKLGFTQADVGLALGTLYGNVFSQTTICRFEALQLSFKNMCKLKPLLNKWVEETDSSS, -0.356 ± 0.069.
To EDAPSSDDLEQFAKQFKQRRIKLGFTQADVGLALGTLYGNVFSQTTICRFEALQLSFKNMCKLKPLLNKWHEETDSSS belongs -0.402 ± 0.35; to EDAPSSDDLEQFAKQFKQRRIKLGFTQADVGLALGTLYGNVFSQTTICRFEALQLSFKNMCKLKPLLNKWSEETDSSS, -0.706 ± 0.13.
To EDAPSSDDLEQFAKQFKQRRIKLGFTQADVGLALGTLYGNVFSQTTICRFEALQLSFKNMCKLKPLLNKWTEETDSSS belongs -0.988 ± 0.23.
As to EDAPSSDDLEQFAKQFKQRRIKLGFTQADVGLALGTLYGNVFSQTTICRFEALQLSFKNMCKLKPLLNKWREETDSSS, the abundance fitness was -0.569 ± 0.081.
As for EDAPSSDDLEQFAKQFKQRRIKLGFTQADVGLALGTLYGNVFSQTTICRFEALQLSFKNMCKLKPLLNKWIEETDSSS, the figure is -0.019 ± 0.11.
As for EDAPSSDDLEQFAKQFKQRRIKLGFTQADVGLALGTLYGNVFSQTTICRFEALQLSFKNMCKLKPLLNKWQEETDSSS, the figure is -0.504 ± 0.16; as for EDAPSSDDLEQFAKQFKQRRIKLGFTQADVGLALGTLYGNVFSQTTICRFEALQLSFKNMCKLKPLLNKWEEETDSSS, -0.63 ± 0.12; as for EDAPSSDDLEQFAKQFKQRRIKLGFTQADVGLALGTLYGNVFSQTTICRFEALQLSFKNMCKLKPLLNKWFEETDSSS, -0.82 ± 0.25.
EDAPSSDDLEQFAKQFKQRRIKLGFTQADVGLALGTLYGNVFSQTTICRFEALQLSFKNMCKLKPLLNKWAEETDSSS: the abundance fitness is -0.369 ± 0.077.
To EDAPSSDDLEQFAKQFKQRRIKLGFTQADVGLALGTLYGNVFSQTTICRFEALQLSFKNMCKLKPLLNKWDEETDSSS belongs -0.711 ± 0.47; to EDAPSSDDLEQFAKQFKQRRIKLGFTQADVGLALGTLYGNVFSQTTICRFEALQLSFKNMCKLKPLLNKWMEETDSSS, 0.03 ± 0.082; to EDAPSSDDLEQFAKQFKQRRIKLGFTQADVGLALGTLYGNVFSQTTICRFEALQLSFKNMCKLKPLLNKWNEETDSSS, -0.341 ± 0.18.
Regarding EDAPSSDDLEQFAKQFKQRRIKLGFTQADVGLALGTLYGNVFSQTTICRFEALQLSFKNMCKLKPLLNKWKEETDSSS, the abundance fitness is -0.677 ± 0.21.
To EDAPSSDDLEQFAKQFKQRRIKLGFTQADVGLALGTLYGNVFSQTTICRFEALQLSFKNMCKLKPLLNKWGEETDSSS belongs -0.851 ± 0.11; to EDAPSSDDLEQFAKQFKQRRIKLGFTQADVGLALGTLYGNVFSQTTICRFEALQLSFKNMCKLKPLLNKKLEETDSSS, -0.756 ± 0.21.
In the case of EDAPSSDDLEQFAKQFKQRRIKLGFTQADVGLALGTLYGNVFSQTTICRFEALQLSFKNMCKLKPLLNKSLEETDSSS, the abundance fitness is -0.348 ± 0.07.
To EDAPSSDDLEQFAKQFKQRRIKLGFTQADVGLALGTLYGNVFSQTTICRFEALQLSFKNMCKLKPLLNKPLEETDSSS belongs -0.93 ± 0.21; to EDAPSSDDLEQFAKQFKQRRIKLGFTQADVGLALGTLYGNVFSQTTICRFEALQLSFKNMCKLKPLLNKFLEETDSSS, 0.086 ± 0.11.
To EDAPSSDDLEQFAKQFKQRRIKLGFTQADVGLALGTLYGNVFSQTTICRFEALQLSFKNMCKLKPLLNKQLEETDSSS belongs -0.881 ± 0.2; to EDAPSSDDLEQFAKQFKQRRIKLGFTQADVGLALGTLYGNVFSQTTICRFEALQLSFKNMCKLKPLLNKGLEETDSSS, -0.687 ± 0.066.
As to EDAPSSDDLEQFAKQFKQRRIKLGFTQADVGLALGTLYGNVFSQTTICRFEALQLSFKNMCKLKPLLNKTLEETDSSS, the abundance fitness is -0.595 ± 0.17.
As for EDAPSSDDLEQFAKQFKQRRIKLGFTQADVGLALGTLYGNVFSQTTICRFEALQLSFKNMCKLKPLLNKDLEETDSSS, the figure is -0.485 ± 0.16; as for EDAPSSDDLEQFAKQFKQRRIKLGFTQADVGLALGTLYGNVFSQTTICRFEALQLSFKNMCKLKPLLNKILEETDSSS, -0.707 ± 0.29; as for EDAPSSDDLEQFAKQFKQRRIKLGFTQADVGLALGTLYGNVFSQTTICRFEALQLSFKNMCKLKPLLNKHLEETDSSS, -0.374 ± 0.23.
To EDAPSSDDLEQFAKQFKQRRIKLGFTQADVGLALGTLYGNVFSQTTICRFEALQLSFKNMCKLKPLLNKYLEETDSSS belongs -0.296 ± 0.18; to EDAPSSDDLEQFAKQFKQRRIKLGFTQADVGLALGTLYGNVFSQTTICRFEALQLSFKNMCKLKPLLNKVLEETDSSS, -0.58 ± 0.069; to EDAPSSDDLEQFAKQFKQRRIKLGFTQADVGLALGTLYGNVFSQTTICRFEALQLSFKNMCKLKPLLNKLLEETDSSS, -0.549 ± 0.072.
As for EDAPSSDDLEQFAKQFKQRRIKLGFTQADVGLALGTLYGNVFSQTTICRFEALQLSFKNMCKLKPLLNKMLEETDSSS, the figure is -0.756 ± 0.19; as for EDAPSSDDLEQFAKQFKQRRIKLGFTQADVGLALGTLYGNVFSQTTICRFEALQLSFKNMCKLKPLLNKELEETDSSS, -0.753 ± 0.11.
As to EDAPSSDDLEQFAKQFKQRRIKLGFTQADVGLALGTLYGNVFSQTTICRFEALQLSFKNMCKLKPLLNKRLEETDSSS, the abundance fitness was -0.679 ± 0.077.
To EDAPSSDDLEQFAKQFKQRRIKLGFTQADVGLALGTLYGNVFSQTTICRFEALQLSFKNMCKLKPLLNKWLQETDSSS belongs -0.143 ± 0.073; to EDAPSSDDLEQFAKQFKQRRIKLGFTQADVGLALGTLYGNVFSQTTICRFEALQLSFKNMCKLKPLLNKWLAETDSSS, -0.193 ± 0.05; to EDAPSSDDLEQFAKQFKQRRIKLGFTQADVGLALGTLYGNVFSQTTICRFEALQLSFKNMCKLKPLLNKWLKETDSSS, -0.049 ± 0.076.
As for EDAPSSDDLEQFAKQFKQRRIKLGFTQADVGLALGTLYGNVFSQTTICRFEALQLSFKNMCKLKPLLNKWLIETDSSS, the figure is -0.245 ± 0.13; as for EDAPSSDDLEQFAKQFKQRRIKLGFTQADVGLALGTLYGNVFSQTTICRFEALQLSFKNMCKLKPLLNKWLPETDSSS, -0.736 ± 0.14; as for EDAPSSDDLEQFAKQFKQRRIKLGFTQADVGLALGTLYGNVFSQTTICRFEALQLSFKNMCKLKPLLNKWLMETDSSS, 0.037 ± 0.057.
As for EDAPSSDDLEQFAKQFKQRRIKLGFTQADVGLALGTLYGNVFSQTTICRFEALQLSFKNMCKLKPLLNKWLDETDSSS, the figure is 0.004 ± 0.065; as for EDAPSSDDLEQFAKQFKQRRIKLGFTQADVGLALGTLYGNVFSQTTICRFEALQLSFKNMCKLKPLLNKWLYETDSSS, -0.19 ± 0.12; as for EDAPSSDDLEQFAKQFKQRRIKLGFTQADVGLALGTLYGNVFSQTTICRFEALQLSFKNMCKLKPLLNKWLLETDSSS, -0.024 ± 0.044.
Turning to EDAPSSDDLEQFAKQFKQRRIKLGFTQADVGLALGTLYGNVFSQTTICRFEALQLSFKNMCKLKPLLNKWLGETDSSS, the abundance fitness was -0.368 ± 0.052.
As for EDAPSSDDLEQFAKQFKQRRIKLGFTQADVGLALGTLYGNVFSQTTICRFEALQLSFKNMCKLKPLLNKWLTETDSSS, the figure is -0.148 ± 0.071; as for EDAPSSDDLEQFAKQFKQRRIKLGFTQADVGLALGTLYGNVFSQTTICRFEALQLSFKNMCKLKPLLNKWLCETDSSS, -0.247 ± 0.091; as for EDAPSSDDLEQFAKQFKQRRIKLGFTQADVGLALGTLYGNVFSQTTICRFEALQLSFKNMCKLKPLLNKWLSETDSSS, -0.212 ± 0.054.
As for EDAPSSDDLEQFAKQFKQRRIKLGFTQADVGLALGTLYGNVFSQTTICRFEALQLSFKNMCKLKPLLNKWLNETDSSS, the figure is -0.152 ± 0.13.
As for EDAPSSDDLEQFAKQFKQRRIKLGFTQADVGLALGTLYGNVFSQTTICRFEALQLSFKNMCKLKPLLNKWLFETDSSS, the figure is -0.493 ± 0.14; as for EDAPSSDDLEQFAKQFKQRRIKLGFTQADVGLALGTLYGNVFSQTTICRFEALQLSFKNMCKLKPLLNKWLRETDSSS, -0.079 ± 0.04.
In the case of EDAPSSDDLEQFAKQFKQRRIKLGFTQADVGLALGTLYGNVFSQTTICRFEALQLSFKNMCKLKPLLNKWLHETDSSS, the abundance fitness is -0.018 ± 0.1.
Regarding EDAPSSDDLEQFAKQFKQRRIKLGFTQADVGLALGTLYGNVFSQTTICRFEALQLSFKNMCKLKPLLNKWLVETDSSS, the abundance fitness was -0.1 ± 0.044.
As for EDAPSSDDLEQFAKQFKQRRIKLGFTQADVGLALGTLYGNVFSQTTICRFEALQLSFKNMCKLKPLLNKWLEEADSSS, the figure is 0.12 ± 0.063.
To EDAPSSDDLEQFAKQFKQRRIKLGFTQADVGLALGTLYGNVFSQTTICRFEALQLSFKNMCKLKPLLNKWLEPTDSSS belongs -0.378 ± 0.12.
As for EDAPSSDDLEQFAKQFKQRRIKLGFTQADVGLALGTLYGNVFSQTTICRFEALQLSFKNMCKLKPLLNKWLEWTDSSS, the figure is -0.137 ± 0.054.
For the variant EDAPSSDDLEQFAKQFKQRRIKLGFTQADVGLALGTLYGNVFSQTTICRFEALQLSFKNMCKLKPLLNKWLETTDSSS, the abundance fitness is -0.034 ± 0.073.
As for EDAPSSDDLEQFAKQFKQRRIKLGFTQADVGLALGTLYGNVFSQTTICRFEALQLSFKNMCKLKPLLNKWLEGTDSSS, the figure is -0.196 ± 0.042; as for EDAPSSDDLEQFAKQFKQRRIKLGFTQADVGLALGTLYGNVFSQTTICRFEALQLSFKNMCKLKPLLNKWLEYTDSSS, -0.197 ± 0.15.
To EDAPSSDDLEQFAKQFKQRRIKLGFTQADVGLALGTLYGNVFSQTTICRFEALQLSFKNMCKLKPLLNKWLELTDSSS belongs -0.018 ± 0.047; to EDAPSSDDLEQFAKQFKQRRIKLGFTQADVGLALGTLYGNVFSQTTICRFEALQLSFKNMCKLKPLLNKWLEHTDSSS, -0.03 ± 0.093; to EDAPSSDDLEQFAKQFKQRRIKLGFTQADVGLALGTLYGNVFSQTTICRFEALQLSFKNMCKLKPLLNKWLERTDSSS, -0.081 ± 0.038.
To EDAPSSDDLEQFAKQFKQRRIKLGFTQADVGLALGTLYGNVFSQTTICRFEALQLSFKNMCKLKPLLNKWLEFTDSSS belongs -0.105 ± 0.16; to EDAPSSDDLEQFAKQFKQRRIKLGFTQADVGLALGTLYGNVFSQTTICRFEALQLSFKNMCKLKPLLNKWLEITDSSS, -0.351 ± 0.22; to EDAPSSDDLEQFAKQFKQRRIKLGFTQADVGLALGTLYGNVFSQTTICRFEALQLSFKNMCKLKPLLNKWLESTDSSS, -0.126 ± 0.061.
On to EDAPSSDDLEQFAKQFKQRRIKLGFTQADVGLALGTLYGNVFSQTTICRFEALQLSFKNMCKLKPLLNKWLEVTDSSS, for which the abundance fitness was -0.128 ± 0.052.
To EDAPSSDDLEQFAKQFKQRRIKLGFTQADVGLALGTLYGNVFSQTTICRFEALQLSFKNMCKLKPLLNKWLEQTDSSS belongs 0.041 ± 0.077; to EDAPSSDDLEQFAKQFKQRRIKLGFTQADVGLALGTLYGNVFSQTTICRFEALQLSFKNMCKLKPLLNKWLEDTDSSS, 0.267 ± 0.082.
To EDAPSSDDLEQFAKQFKQRRIKLGFTQADVGLALGTLYGNVFSQTTICRFEALQLSFKNMCKLKPLLNKWLEMTDSSS belongs -0.012 ± 0.063.
As for EDAPSSDDLEQFAKQFKQRRIKLGFTQADVGLALGTLYGNVFSQTTICRFEALQLSFKNMCKLKPLLNKWLEATDSSS, the abundance fitness was -0.038 ± 0.055.
As for EDAPSSDDLEQFAKQFKQRRIKLGFTQADVGLALGTLYGNVFSQTTICRFEALQLSFKNMCKLKPLLNKWLENTDSSS, the abundance fitness was -0.154 ± 0.12.
